The record followed here is paper PMC6355839, “Functional role of PGAM5 multimeric assemblies and their polymerization into filaments” (Nature Communications, 2019).

Substitutions are numbered along the chain they refer to. Numbers in names are those of the source.

B1: PGAM5 MM peptide (linker domain residues 54–67, multimerization motif) (peptide)
peptide: GPGVWDPNWDRREP
notes: PGAM5 linker domain residues 54-67, holding the multimerization motif WDxxWD (58-63); source: synthetic peptide, bought: Elim Biopharma
B2: ∆48 PGAM5 (residues 49–289), wild type (domain or fragment, UniProt Q96HS1 49-289, looked up)
chain: GGARPGPGVWDPNWDRREPLSLINVRKRNVESGEEELASKLDHYKAKATRHIFLIRHSQYHVDGSLEKDRTLTPLGREQAELTGLRLASLGLKFNKIVHSSMTRAIETTDIISRHLPGVCKVSTDLLREGAPIEPDPPVSHWKPEAVQYYEDGARIEAAFRNYIHRADARQEEDSYEIFICHANVIRYIVCRALQFPPEGWLRLSLNNGSITHLVIRPNGRVALRTLGDTGFMPPDKITRS
notes: PGAM5 long isoform (PGAM5L, residues 1-289), residues 49-289: linker domain with the multimerization motif (58-63) and the PGAM phosphatase domain; His6 is followed by a TEV site (ENLYFQS); the methods describe no TEV cleavage; also called Δ48 PGAM5; ∆48 WT; source: E. coli BL21 DE3 pLysS, purified (Ni-NTA, SEC on Superose 6)
B3: ∆48 PGAM5 R269E (domain or fragment, UniProt Q96HS1 49-289, looked up)
chain: B2 chain with R221E
notes: PGAM5 long isoform (PGAM5L), residues 49-289, R269E; source: E. coli BL21 DE3 pLysS, purified (Ni-NTA, SEC)
B4: ∆48 PGAM5 H105A (domain or fragment, UniProt Q96HS1 49-289, looked up)
chain: B2 chain with H57A
notes: PGAM5 long isoform (PGAM5L), residues 49-289, H105A; also called ∆48 H105A; source: E. coli BL21 DE3 pLysS, purified (Ni-NTA, SEC)
B5: ∆48 PGAM5 Y198E (domain or fragment, UniProt Q96HS1 49-289, looked up)
chain: B2 chain with Y150E
notes: PGAM5 long isoform (PGAM5L), residues 49-289, Y198E; also called ∆48 Y198E; source: E. coli BL21 DE3 pLysS, purified (Ni-NTA, SEC)
B6: ∆48 PGAM5 R288E (domain or fragment, UniProt Q96HS1 49-289, looked up)
chain: B2 chain with R240E
notes: PGAM5 long isoform (PGAM5L), residues 49-289, R288E; also called ∆48 R288E; source: E. coli BL21 DE3 pLysS, purified (Ni-NTA, SEC)
B7: ∆48 PGAM5 A4 (WDxxWD of the MM replaced by AAxxAA) (domain or fragment, UniProt Q96HS1 49-289, looked up)
chain: B2 chain with W10A, D11A, W14A, D15A
notes: PGAM5 long isoform (PGAM5L), residues 49-289, W58A/D59A/W62A/D63A; also called ∆48 A4; A4 mutant; source: E. coli BL21 DE3 pLysS, purified (Ni-NTA, SEC)
B8: ∆48 PGAM5 R65A (domain or fragment, UniProt Q96HS1 49-289, looked up)
chain: B2 chain with R17A
notes: PGAM5 long isoform (PGAM5L), residues 49-289, R65A; also called ∆48 R65A; source: E. coli BL21 DE3 pLysS, purified (Ni-NTA, SEC)
B9: ∆90 PGAM5 (residues 91–289), isolated phosphatase domain, wild type (domain or fragment, UniProt Q96HS1 91-289, looked up)
chain: HYKAKATRHIFLIRHSQYHVDGSLEKDRTLTPLGREQAELTGLRLASLGLKFNKIVHSSMTRAIETTDIISRHLPGVCKVSTDLLREGAPIEPDPPVSHWKPEAVQYYEDGARIEAAFRNYIHRADARQEEDSYEIFICHANVIRYIVCRALQFPPEGWLRLSLNNGSITHLVIRPNGRVALRTLGDTGFMPPDKITRS
notes: PGAM5 long isoform (PGAM5L), residues 91-289, phosphatase domain; His6 followed by a TEV site (ENLYFQS); cleavage not described; also called Δ90 PGAM5; source: E. coli BL21 DE3 pLysS, purified (Ni-NTA, SEC on Superose 6)
B10: ∆90 PGAM5 H105A (residues 91–289), catalytically dead phosphatase domain (domain or fragment, UniProt Q96HS1 91-289, looked up)
chain: B9 chain with H15A
notes: PGAM5 long isoform (PGAM5L), residues 91-289, phosphatase domain, H105A; His6 followed by a TEV site (ENLYFQS); cleavage not described; also called Δ90 PGAM5 H105A; ∆90 H105A PGAM5; source: E. coli BL21 DE3 pLysS, purified (Ni-NTA, SEC)

Series [1] has as its target B10. Put plainly: crystal structure; ∆90 H105A PGAM5 7.5 mg/mL with ASK1 peptide:MM peptide:protein 3:3:1; 100 mM Tris-Cl pH 7.0, 200 mM MgCl2, 10% PEG 8000; 2.6 Å; twelve molecules in the asymmetric unit. The following applies: both partners purified.
Series [2] deals with the molecule itself. Description: cryo-EM structure; 2D class averages only (top view, 4.5 Å); 0.10 mg/mL in 20 mM Tris-Cl pH 8.0, 600 mM NaCl, 0.5 mM TCEP.
Series [3] concerns the molecule itself. Description: cell-based or functional assay.
Series [4] deals with the molecule itself. Put plainly: SEC; Superose 6 10/300 GL Increase; 20 mM Tris-Cl pH 8.0, 150 mM NaCl, 0.5 mM TCEP; salt titration up to 1 M NaCl.
Series [5] concerns the molecule itself. Description: negative-stain electron microscopy; samples from SEC peaks (~0.01–0.1 mg/mL), 0.75% uranyl formate; 150 mM NaCl buffer; filaments decompose into rings at 300 and 750 mM NaCl.
Series [6] deals with the molecule itself. Description: crystal structure; ∆90 H105A PGAM5 7.5 mg/mL with ASK1 peptide:MM peptide:protein 3:3:1; 100 mM Tris-Cl pH 7.0, 200 mM MgCl2, 10% PEG 8000; 2.6 Å; twelve molecules in the asymmetric unit.
Series [7] concerns the molecule itself. Description: crystal structure; ∆90 H105A PGAM5 5 mg/mL with ASK1 peptide 5:1, without MM peptide; 100 mM HEPES pH 7.5, 200 mM MgCl2, 30% PEG 400; 1.7 Å; two molecules in the asymmetric unit.

As to B1, in series [1], the binding result was “binds”.
With B2, the results for the “stoichiometry N” value in series [2] and in series [4] were 12 and 2, respectively. Further, the “Kcat/Km of dephosphorylation of the ASK1 phosphopeptide (20 nM enzyme)” value (“Kcat/Km” below) in series [3] was found to be 19800 M⁻¹ s⁻¹.
Turning to B3, the binding result in series [5] was “binds”.
For B4, the binding result in series [4] is recorded as “binds”.
B5: the “Kcat/Km” value in series [3] stood at 10000 M⁻¹ s⁻¹. The “stoichiometry N” value in series [4] was 2.
Regarding B6, the “Kcat/Km” value in series [3] came out at 13700 M⁻¹ s⁻¹. Besides, in series [5], the “stoichiometry N” value was found to be 12.
Take B7: the “stoichiometry N” value in series [4] came to 2.
Consider B8, for which, in series [3], the “Kcat/Km” value was 3170 M⁻¹ s⁻¹. For the same molecule, in series [4], the “stoichiometry N” value was 2.
Take B9: in series [4], the “stoichiometry N” value came out at 2.
As to B10, the “stoichiometry N” value in series [6] was 12; in series [7] it was 2.
